Assay [1] concerns the target Fzd2 cysteine rich domain (CRD), C-terminally biotinylated (human, UniProt Q14332 24-155). Nature of the assay: BLI. The method, then:
(§1) Binding kinetics of antibody fragments to a variety of Fzd cysteine rich domain (CRD) protein targets (Fzd1, Fzd2, Fzd3, Fzd4, Fzd5, Fzd6, Fzd7, Fzd8, Fzd9 and/or Fzd10 CRDs) was determined by bio-layer interferometry (BLI) using Octet Red 96 (PALL ForteBio, Fremont, CA) instruments at 30° C., 1000 rpm with streptavidin (SA) biosensors. C-terminal biotinylated Fzd CRD recombinant protein was diluted to 20 nM in the running buffer (PBS, 0.05% Tween-20, 0.5% BSA, pH 7.2) and captured to the SA biosensor until coupling length reached 0.2 nm. Following capture of the Fzd CRD, the SA biosensor with captured biotinylated-Fzd CRD was dipped into wells containing the relevant antibody fragment at […] (0, 1.37, 4.12, 12.4, 37, 111.1, 333.3, 1000 nM) in running buffer, plus a well with only running buffer as a reference channel. […] was determined by global fitting, 1:1 binding model according to manufacturer recommended settings.
(§2) Table 1B provides clone IDs, the sequence identifier number of the antibody heavy chain fragment and/or light chain fragment, if present, for illustrative clones. In certain embodiments, the Fzd binding domain is an Fab or was derived from an Fab, so the heavy chain of Table 1B includes VH and CH1 sequence, but not CH2 or CH3 sequences. In certain embodiments, the Fzd binding domain is a VHH or sdAb® or was derived from a VHH or sdAb, so Table 1B includes the VHH domain. […] The Kd values were determined by BLI as described above. Blank entries denote that the binding to the specific Fzd receptor has not yet been determined. The entry of "n.b." indicates no binding.
Background: In BLI a coated tip is dipped into the sample, and binding shifts an interference pattern.

Assay [2] concerns the target Fzd1 cysteine rich domain (CRD), C-terminally biotinylated (human, UniProt Q9UP38 101-230). Nature of the assay: BLI. The method, then: as §1, §2

B1: 004S-F10 (Fab, V domains shown)
VH: EVQLVESGGGLVQPGGSLRLSCAASGFTFSDHYMSWVRQAPGKGLEWVALVGYDGSQQFYGESVKGRFTISRDNSKNTLYLQMNSLRAEDTAVYYCNTGIPMLYWGQGTLVTVSS
VL: not shown
On to B1, for which the binding result in assay [1] and in assay [2] was “no binding (tested: 1000 nM)” throughout.

B2: 017S-B09 (VHH)
VHH: AVQQVESGGGLVQPGGSLRLSCAASGFTLDYYAISWFRQAPGKKRELVADITSGGSTNYADSVKGRFTISRDNAKNTIYLQMNSLKPEDTAVYFCNAVTYNGYTIWGQGTQVTVSS
Regarding B2, the binding result in assay [1] and in assay [2] was “no binding (tested: 1000 nM)” throughout.

B3: 014S-G02 (Fab, V domains shown)
VH: QVQLVQSGAEVKKPGASVKVSCKASGYTFTSYYMNWVRQAPGQGLEWMGIISPSGGSTSYAQKFQGRVTMTRDTSTSTVYMELSSLRSEDTAVYYCARWGDYGDLYYFDYWGQGTLVTVSS
VL: DIQMTQSPSSLSASVGDRVTITCRASQGISSALAWYQQKPGKAPKLLIYATSTLQSGVPSRFSGSGSGTDFTLTISSLQPEDFATYYCQQVNSYPPTFGQGTKLEIKR
On to B3, for which the binding result in assay [1] and in assay [2] was “no binding (tested: 1000 nM)” in each case.

B4: 003S-D10 (Fab, V domains shown)
VH: EVQLVESGGGLVKPGGSLRLSCAASGFNFGIYSMTWVRQAPGKGLEWISYISGDSGYTNYADSVKGRFTISRDDSKNTLYLQMNSLKTEDTAVYYCARVGPGGWFDPWGQGTLVTVSS
VL: DIQMTQSPSSLSASVGDRVTITCRASQGISSYLAWYQQKPGKAPKLLIYAASNLLGGVPSRFSGSGSGTDFTLTISSLQPEDFATYYCQQTYSTPWTFGQGTKVEIKR
On to B4, for which the binding result in assay [1] and in assay [2] was “no binding (tested: 1000 nM)” throughout.

B5: 005S-E09 (Fab, V domains shown)
VH: EVQLVQSGGGLVQPGGSLRLSCAASGFNLRRYNMNWVRQAPGKGLEWVSRISNSGSLVYYADSVKGRFTISRDNSKNTLYLQMNSLRAEDTAVYYCARDADSSGYYRYDAFDIWGQGTMVTVSS
VL: EIVLTQSPATLSVSPGERATLSCRASQSVSSNLAWYQQKPGQAPRLLIYDASNRATGIPARFSGSGSGTEFTLTISSLQSEDFAVYYCQQRNNWLYTFGQGTKVEIKR
As for B5, the binding result in assay [1] and in assay [2] was “no binding (tested: 1000 nM)” each time.

B6: 005S-A07 (Fab, V domains shown)
VH: QVQLVQSGAEVKKPGSSVKVSCKASGFTFTGSAVQWVRQAPGQGLEWVGGILPIYGTTKYAQKFQGRVTITADESTSTAYMELSSLRSEDTAVYYCARGARLYGFDYWGQGTLVTVSS
VL: EIVLTQSPATLSVSPGERATLSCRASQSVSRNLAWYQQKPGQAPRLLIYGASTRATGIPARFSGSGSGTEFTLTISSLQSEDFAVYYCQQRSNWPITFGQGTRLEIKR
B6: the binding result in assay [1] and in assay [2] was “no binding (tested: 1000 nM)” throughout.

B7: 014S-A07 (Fab, V domains shown)
VH: EVQLVESGGGLVKPGGSLRLSCAASGFTFSNAQMSWVRQAPGKGLEWVSAIGTGGGTYYADSVKGRFTISRDDSKNTLYLQMNSLKTEDTAVYYCAREGSYYDWYFDLWGRGTLVTVSS
VL: EIVLTQSPATLSVSPGERATLSCRASQNIGSRLAWYQQKPGQAPRLLIYGASNRASGIPARFSGSGSGTEFTLTISSLQSEDFAVYYCQQYNHWPPLFTFGPGTKVDIKR
Consider B7, for which the binding result in assay [1] and in assay [2] was “no binding (tested: 1000 nM)” each time.

B8: 005S-B11 (Fab, V domains shown)
VH: QVQLVQSGAEVKKPGASVKVSCKASGYTFTSYDINWVRQAPGQGLEWMGGFDPEDGETIYAQKFQGRVTMTRDTSTSTVYMELSSLRSEDTAVYYCAKAGDWGLYGMDVWGQGTMVTVSS
VL: DIQMTQSPSSLSASVGDRVTITCRASQSISRWLAWYQQKPGKAPKLLIYAASSLQSGVPSRFSGSGSGTDFTLTISSLQPEDFATYYCQQTNTFPFTFGPGTKVDIKR
With B8, the binding result in assay [1] and in assay [2] was “no binding (tested: 1000 nM)” each time.

B9: 005S-B07 (Fab, V domains shown)
VH: QVQLVQSGAEVKKPGASVKVSCKASGFTFTSSAVQWVRQAPGQGLEWMGWMNPNSGNTGYAQKFQGRVTMTRDTSTSTVYMELSSLRSEDTAVYYCARGRGQQWLTGYYGMDVWGQGTTVTVSS
VL: DIQMTQSPSSLSASVGDRVTITCRASQGISSALAWYQQKPGKAPKLLIYGASTLQSGVPSRFSGSGSGTDFTLTISSLQPEDFATYYCLQDYNYPFTFGPGTKVDIKR
Regarding B9, the binding result in assay [1] and in assay [2] was “no binding (tested: 1000 nM)” each time.

B10: 014S-B04 (Fab, V domains shown)
VH: QVQLVQSGAEVKKPGASVKVSCKASGYIFTDYYMHWVRQAPGQGLEWMGWMNPNSGNTGYAQKFQGRVTMTRDTSTSTVYMELSSLRSEDTAVYYCARGGSRYDFWSGHWYFDLWGRGTLVTVSS
VL: DIQMTQSPSSLSASVGDRVTITCRASQGISNYLAWYQQKPGKAPKLLIYAASSLQSGVPSRFSGSGSGTDFTLTISSLQPEDFATYYCQQSYSTPFTFGQGTKVEIKR
Consider B10, for which the binding result in assay [1] and in assay [2] was “no binding (tested: 1000 nM)” throughout.

B11: 005S-E12 (Fab, V domains shown)
VH: QVQLVQSGAEVKKPGASVKVSCKASGYIFTDYYMHWVRQAPGQGLEWMGVIFPVYPTPDYAQKFQGRVTMTRDTSTSTVYMELSSLRSEDTAVYYCARGGSTGYYGMDVWGQGTTVTVSS
VL: DIQMTQSPSSLSASVGDRVTITCRASQSVGRWMAWYQQKPGKAPKLLIYAASSLQSGVPSRFSGSGSGTDFTLTISSLQPEDFATYYCQQANTFPFTFGPGTKVDIKR
For the molecule B11, the binding result in assay [1] and in assay [2] was “no binding (tested: 1000 nM)” each time.

B12: 014S-G06 (Fab, V domains shown)
VH: EVQLVESGGGLVKPGGSLRLSCAASGFTFSSYAMHWVRQAPGKGLEWVSAIGAGGGTYYADSVKGRFTISRDDSKNTLYLQMNSLKTEDTAVYYCARDAYNWFDPWGQGTLVTVSS
VL: not shown
For the molecule B12, the binding result in assay [1] and in assay [2] was “no binding (tested: 1000 nM)” throughout.

B13: 004S-A12 (Fab, V domains shown)
VH: QVQLVQSGAEVKKPGASVKVSCKASGYTFTNNFMHWVRQAPGQGLEWMGRINPNSGGTNYAQKFQGRVTMTRDTSTSTVYMELSSLRSEDTAVYYCARGQGYSSGWYRGDAFDIWGQGTTVTVSS
VL: not shown
For B13, the binding result in assay [1] and in assay [2] was “no binding (tested: 1000 nM)” each time.

B14: 005S-D08 (Fab, V domains shown)
VH: EVQLVESGGGLVQPGGSLRLSCAASGFAFSSHWMHWVRQAPGKGLEWVSAIDGSGGSTYYADSVKGRFTISRDNSKNTLYLQMNSLRAEDTAVYYCARDRQLGWAHWYFDLWGRGTLVTVSS
VL: not shown
In the case of B14, the binding result in assay [1] and in assay [2] was “no binding (tested: 1000 nM)” in each case.

B15: 005S-D11 (Fab, V domains shown)
VH: QVQLVQSGAEVKKPGASVKVSCKASGYTFTNNFMHWVRQAPGQGLEWMGWINPNSGDTKFAPKFQGRVTMTRDTSTSTVYMELSSLRSEDTAVYYCAREANYDILTGYIRPDAFDIWGQGTTVTVSS
VL: EIVLTQSPATLSVSPGERATLSCRASQSLRSKLAWYQQKPGQAPRLLIYGASTRATGIPARFSGSGSGTEFTLTISSLQSEDFAVYYCQQYANSPWTFGPGTKVDIKR
As for B15, the binding result in assay [1] and in assay [2] was “no binding (tested: 1000 nM)” throughout.

B16: 014S-B06 (Fab, V domains shown)
VH: EVQLVQSGGGLVKPGGSLRLSCAASGFTFSSYSMNWVRQAPGKGLEWVSYIENDGSITTYADSVKGRFTISRDDSKNTLYLQMNSLKTEDTAVYYCARAPYYYGSGSLFRLDYWGQGTLVTVSS
VL: not shown
Consider B16, for which the binding result in assay [1] and in assay [2] was “no binding (tested: 1000 nM)” in each case.

B17: 005S-H10 (Fab, V domains shown)
VH: QVQLVQSGAEVKKPGSSVKVSCKASGGAFSTSSISWVRQAPGQGLEWVGRIIPVLGTANYAQKFQGRVTITADESTSTAYMELSSLRSEDTAVYYCAKGGWRSSFDPWGQGTLVTVSS
VL: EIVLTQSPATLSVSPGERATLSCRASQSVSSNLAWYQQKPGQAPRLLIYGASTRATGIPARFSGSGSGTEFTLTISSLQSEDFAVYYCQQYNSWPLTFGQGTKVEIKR
Regarding B17, the binding result in assay [1] and in assay [2] was “no binding (tested: 1000 nM)” in each case.

B18: 004S-A11 (Fab, V domains shown)
VH: QVQLVQSGAEVKKPGSSVKVSCKASGGTFSSYAISWVRQAPGQGLEWMGRIIPILGIANYAQKFQGRVTITADESTSTAYMELSSLRSEDTAVYYCARESVNNYYYMDVWGKGTTVTVSS
VL: not shown
B18: the binding result in assay [1] and in assay [2] was “no binding (tested: 1000 nM)” in each case.

The values are drawn from patent publication US12006368 (SURROZEN OPERATING, dated 2024).
